B1: SEQ ID NO 80 (receptor)
chain: MGHLPKPTLWAEPGSVITMDQPVTLRCQGGQETQEYRLYREKKTAPWITRIPQELVKKGQFPIPSITWEHAGRYRCVIQRGTAGRSESSDPLELVVTGVYIKPTLSAQPSPVVNSGGNVTLQCDSQVAFDGFILCKEGEDEHPQCLNSQPHARGSSRAIFSVGPVSPSRRWWYRCYAYDSNSPYEWSLPSDLLELLVL
notes: mutated soluble two domain ILT-2
B2: SEQ ID NO 91 (receptor)
chain: MGHLPKPTLWAEPGSVITQGSPVTLRCQGGQETQEYRLYREKKTAPWITRIPQELVKKGQFPIPSVTWEHAGRYRCYYGSDTAGRSESSDPLELVVTGVYIKPTLSAQPSPVVNSGGNVTLQCDSQVAFDGFILCKEGEDEHPQCLNSQPHARGSSRAIFSVGPVSPSRRWWYRCYAYDSNSPYEWSLPSDLLELLVL
notes: as for B1
B3: SEQ ID NO 95 (receptor)
chain: MGHLPKPTLWAEPGSVITQGSPVTLRCQGGQETQEYRLYREKKTAPWITRIPQELVKKGQFPIPSITWEHAGRYRCQGVSQTAGRSESSDPLELVVTGVYIKPTLSAQPSPVVNSGGNVTLQCDSQVAFDGFILCKEGEDEHPQCLNSQPHARGSSRAIFSVGPVSPSRRWWYRCYAYDSNSPYEWSLPSDLLELLVL
notes: as for B1
B4: SEQ ID NO 99 (receptor)
chain: MGHLPKPTLWAEPGSVITQGSPVTLRCQGGQETQEYRLYREKKTAPWITRIPQELVKKGQFPIPSITWEHAGRYRCYYGSDTAGRSESSDPLELVVTGIYQAPTLSAQPSPVVNSGGNVTLQCDSQVAFDGFILCKEGEDEHPQCLNSQPHARGSSRAIFSVGPVSPGRRWWYRCYAYDSNSPYEWSLPSDLLELLVL
notes: as for B1
B5: SEQ ID NO 90 (receptor)
chain: MGHLPKPTLWAEPGSVITQGSPVTLRCQGGQETQEYRLYREKKTAPWITRIPQELVKKGQFPIPSITWEHAGRYRCYYGSDTAGRSESSDPLELVVTGVYIKPTLSAQPSPVVNSGGNVTLQCDSQVAFDGFILCKEGEDEHPQCLNSQPHARGSSRAIFSVGPVSPGRRWWYRCYAYDSNSPYEWSLPSDLLELLVL
notes: as for B1
B6: SEQ ID NO 92 (receptor)
chain: MGHLPKPTLWAEPGSVITQGSPVTLRCQGGQETQEYRLYREKKTAPWITRIPQELVKKGQFPIPSITWEHAGRYRCVGWAVTAGRSESSDPLELVVTGVYIKPTLSAQPSPVVNSGGNVTLQCDSQVAFDGFILCKEGEDEHPQCLNSQPHARGSSRAIFSVGPVSPSRRWWYRCYAYDSNSPYEWSLPSDLLELLVL
notes: as for B1
B7: SEQ ID NO 102 (receptor)
chain: MGHLPKPTLWAEPGSVITQGSPVTLRCQGGQETQEYRLYREKKTAPWITRIPQELVKKGQFPIPSITWEHAGRYRCYYGSDTAGRSESSDPLELVVTGIYQKPTLSAQPSPVVNSGGNVTLQCDSQVAFDGFILCKEGEDEHPQCLNSQPHARGSSRAIFSVGPVSPSRRWWYRCYAYDSNSPYEWSLPSDLLELLVL
notes: as for B1
B8: SEQ ID NO 85 (receptor)
chain: MGHLPKPTLWAEPGSVITQGSPVTLRCQGGQETQEYRLYREKKTAPWITRIPQELVKKGQFPIPSITWEHAGRYRCYYGSDTAGRSESSDPLELVVTGIYQAPTLSAQPSPVVNSGGNVTLQCDSQVAFDGFILCKEGEDEHPQCLNSQPHARGSSRAIFSVGPVSPSRRWWYRCYAYDSNSPYEWSLPSDLLELLVL
notes: as for B1
B9: SEQ ID NO 87 (receptor)
chain: MGHLPKPTLWAEPGSVITQGRPVTLRCQGGQETQEYRLYREKKTAPWITRIPQELVKKGQFPIPSITWEHAGRYRCYYGSDTAGRSESSDPLELVVTGVYIKPTLSAQPSPVVNSGGNVTLQCDSQVAFDGFILCKEGEDEHPQCLNSQPHARGSSRAIFSVGPVSPSRRWWYRCYAYDSNSPYEWSLPSDLLELLVL
notes: as for B1
B10: SEQ ID NO 88 (receptor)
chain: MGHLPKPTLWAEPGSVITVGQPVTLRCQGGQETQEYRLYREKKTAPWITRIPQELVKKGQFPIPSITWEHAGRYRCYYGSDTAGRSESSDPLELVVTGVYIKPTLSAQPSPVVNSGGNVTLQCDSQVAFDGFILCKEGEDEHPQCLNSQPHARGSSRAIFSVGPVSPGRRWWYRCYAYDSNSPYEWSLPSDLLELLVL
notes: as for B1
B11: SEQ ID NO 81 (receptor)
chain: MGHLPKPTLWAEPGSVITMDQPVTLRCQGGQETQEYRLYREKKTAPWITRIPQELVKKGQFPIPSITWEHAGRYRCMQYTLTAGRSESSDPLELVVTGVYIKPTLSAQPSPVVNSGGNVTLQCDSQVAFDGFILCKEGEDEHPQCLNSQPHARGSSRAIFSVGPVSPSRRWWYRCYAYDSNSPYEWSLPSDLLELLVL
notes: as for B1
B12: SEQ ID NO 96 (receptor)
chain: MGHLPKPTLWAEPGSVITQGSPVTLRCQGGQETQEYRLYREKKTAPQITRIPQELVKKGQFPIPSITWEHAGRYRCYYGSDTAGRSESSDPLELVVTGVYVAPTLSAQPSPVVNSGGNVTLQCDSQVAFDGFILCKEGEDEHPQCLNSQPHARGSSRAIFSVGPVSPGRRWWYRCYAYDSNSPYEWSLPSDLLELLVL
notes: as for B1
B13: SEQ ID NO 94 (receptor)
chain: MGHLPKPTLWAEPGSVITQGSPVTLRCQGGQETQEYRLYREKKTAPWITRIPQELVKKGQFPIPSITWEHAGRYRCYYGGQEGARSESSDPLELVVTGVYIKPTLSAQPSPVVNSGGNVTLQCDSQVAFDGFILCKEGEDEHPQCLNSQPHARGSSRAIFSVGPVSPSRRWWYRCYAYDSNSPYEWSLPSDLLELLVL
notes: as for B1
B14: SEQ ID NO 86 (receptor)
chain: MGHLPKPTLWAEPGSVITQGAPVTLRCQGGQETQEYRLYREKKTAPWITRIPQELVKKGQFPIPSITWEHAGRYRCYYGSDTAGRSESSDPLELVVTGVYIKPTLSAQPSPVVNSGGNVTLQCDSQVAFDGFILCKEGEDEHPQCLNSQPHARGSSRAIFSVGPVSPGRRWWYRCYAYDSNSPYEWSLPSDLLELLVL
notes: as for B1
B15: SEQ ID NO 98 (receptor)
chain: MGHLPKPTLWAEPGSVITQGSPVTLRCQGGQETQEYRLYREKKTAPWITRIPQELVKKGQFPIPSITWEHAGRYRCYYGSDTAGRSESSDPLELVVTGIYQRPTLSAQPSPVVNSGGNVTLQCDSQVAFDGFILCKEGEDEHPQCLNSQPHARGSSRAIFSVGPVSPGRRWWYRCYAYDSNSPYEWSLPSDLLELLVL
notes: as for B1
B16: SEQ ID NO 82 (receptor)
chain: MGHLPKPTLWAEPGSVITQGSPVTLRCQGGQETQEYRLYREKKTAPWITRIPQELVKKGQFPIPSITWEHAGRYRCYYGSDTAGRSESSDPLELVVTGIYRQPTLSAQPSPVVNSGGNVTLQCDSQVAFDGFILCKEGEDEHPQCLNSQPHARGSSRAIFSVGPVSPSRRWWYRCYAYDSNSPYEWSLPSDLLELLVL
notes: as for B1
B17: SEQ ID NO 101 (receptor)
chain: MGHLPKPTLWAEPGSVITQGSPVTLRCQGGQETQEYRLYREKKTAPWITRIPQELVKKGQFPIPSITWEHAGRYRCYYGSDTAGRSESSDPLELVVTGIYKQPTLSAQPSPVVNSGGNVTLQCDSQVAFDGFILCKEGEDEHPQCLNSQPHARGSSRAIFSVGPVSPGRRWWYRCYAYDSNSPYEWSLPSDLLELLVL
notes: as for B1
B18: SEQ ID NO 89 (receptor)
chain: MGHLPKPTLWAEPGSVITLGQPVTLRCQGGQETQEYRLYREKKTAPWITRIPQELVKKGQFPIPSITWEHAGRYRCYYGSDTAGRSESSDPLELVVTGVYIKPTLSAQPSPVVNSGGNVTLQCDSQVAFDGFILCKEGEDEHPQCLNSQPHARGSSRAIFSVGPVSPGRRWWYRCYAYDSNSPYEWSLPSDLLELLVL
notes: as for B1
B19: SEQ ID NO 83 (receptor)
chain: MGHLPKPTLWAEPGSVITQGSPVTLRCQGGQETQEYRLYREKKTAPWITRIPQELVKKGQFPIPSITWEHAGRYRCYYGSDTAGRSESSDPLELVVTGIYLAPTLSAQPSPVVNSGGNVTLQCDSQVAFDGFILCKEGEDEHPQCLNSQPHARGSSRAIFSVGPVSPSRRWWYRCYAYDSNSPYEWSLPSDLLELLVL
notes: as for B1
B20: SEQ ID NO 84 (receptor)
chain: MGHLPKPTLWAEPGSVITQGSPVTLRCQGGQETQEYRLYREKKTAPWITRIPQELVKKGQFPIPSITWEHAGRYRCYYGSDTAGRSESSDPLELVVTGIYKAPTLSAQPSPVVNSGGNVTLQCDSQVAFDGFILCKEGEDEHPQCLNSQPHARGSSRAIFSVGPVSPSRRWWYRCYAYDSNSPYEWSLPSDLLELLVL
notes: as for B1
B21: SEQ ID NO 100 (receptor)
chain: MGHLPKPTLWAEPGSVITQGSPVTLRCQGGQETQEYRLYREKKTAPWITRIPQELVKKGQFPIPSITWEHAGRYRCYYGSDTAGRSESSDPLELVVTGIYLQPTLSAQPSPVVNSGGNVTLQCDSQVAFDGFILCKEGEDEHPQCLNSQPHARGSSRAIFSVGPVSPGRRWWYRCYAYDSNSPYEWSLPSDLLELLVL
notes: as for B1
B22: SEQ ID NO 97 (receptor)
chain: MGHLPKPTLWAEPGSVITQGSPVTLRCQGGQETQEYRLYREKKTAPWITRIPQELVKKGQFPIPSITWEHAGRYRCYYGSDTAGRSESSDPLELVVTGIYKAPTLSAQPSPVVNSGGNVTLQCDSQVAFDGFILCKEGEDEHPQCLNSQPHARGSSRAIFSVGPVSPGRRWWYRCYAYDSNSPYEWSLPSDLLELLVL
notes: as for B1

Each binder was assayed against T1, HLA-A*0201 loaded with the Carcinoembryonic antigen (CEA)-derived … peptide (biotin on the C-terminal biotinylation tag) (assay: Biacore SPR).
T1 construct: Soluble, biotinylated, immobilised on a streptavidin chip
Description: SPR measures changes in refractive index expressed in response units (RU) near a sensor surface within a small flow cell, a principle that can be used to detect receptor ligand interactions and to analyse their affinity and kinetic parameters. The probe flow cells were prepared by immobilising the pMHC complexes in flow cells via biotin-tag binding. The assay was then performed by passing soluble ILT-like molecule over the surfaces of the different flow cells at a constant flow rate, measuring the SPR response in doing so.

Binder	Kd [µM]	koff [s⁻¹]
B1	≤ 1	≤ 2
B2	≤ 1	≤ 2
B3	≤ 1	≤ 2
B4	≤ 1	≤ 2
B5	≤ 1	≤ 2
B6	≤ 1	≤ 2
B7	≤ 1	≤ 2
B8	≤ 1	≤ 2
B9	≤ 1	≤ 2
B10	≤ 1	≤ 2
B11	≤ 1	≤ 2
B12	≤ 1	≤ 2
B13	≤ 1	≤ 2
B14	≤ 1	≤ 2
B15	≤ 1	≤ 2
B16	≤ 1	≤ 2
B17	≤ 1	≤ 2
B18	≤ 1	≤ 2
B19	≤ 1	≤ 2
B20	≤ 1	≤ 2
B21	≤ 1	≤ 2
B22	≤ 1	≤ 2
